The labels stand for the following.
B1: C2-3 (peptide)
peptide: RQGSFG-NH2
modifications: bridge (positions not given here) via N(2-Aminoethyl)Gly; also: backbone cyclised via N-(aminoethyl)Gly building unit and dicarboxylic acid bridge (m=4), structure in drawing only
B2: C2-1 (peptide)
peptide: RQGSFG-NH2
modifications: bridge (positions not given here) via N(2-Aminoethyl)Gly; also: backbone cyclised via N-(aminoethyl)Gly building unit and dicarboxylic acid bridge (m=2), structure in drawing only
B3: C2-2 (peptide)
peptide: RQGSFG-NH2
modifications: bridge (positions not given here) via N(2-Aminoethyl)Gly; also: backbone cyclised via N-(aminoethyl)Gly building unit and dicarboxylic acid bridge (m=3), structure in drawing only

Starred links: 1 amine or outer side, 2 acyl side, 3 side chain; linkers in the order of their positions; H or OH if unused. No end group written: not given here. N(2-Aminoethyl)Gly = O=C(CN(CCN[*:3])[*:1])[*:2]

The assay concerns the target HIV-1 envelope glycoprotein gp120 (HIV-1). The assay is described as follows: cell-based or functional assay.
Regarding B1, the “IC50 of infection inhibition (Cell Infection Inhibition Assay, CD4 expressing Hela P4 cells)” value (from here on “IC50 of infection inhibition”) stood at 81 µM.

For the molecule B2, the “IC50 of infection inhibition” value came out at 33 µM.

Regarding B3, the “IC50 of infection inhibition” value is 81 µM.

The values above are taken from patent publication US20080312140A1 (published 2008).
